According to PMC11861179, “Propionate metabolism in Desulfurella acetivorans” (Frontiers in Microbiology, 2025):

Key:
Test in all cases: purified protein
O=C(O)CC(=O)C(=O)O = conditions: co-substrate acetyl-CoA, 100 mM Tris-HCl pH 7.8, 55°C
[1] = tested on: CCC(=O)SCCNC(=O)CCNC(=O)[C@H](O)C(C)(C)COP(=O)(O)OP(=O)(O)OC[C@H]1O[C@@H](n2cnc3c(N)ncnc32)[C@H](O)[C@@H]1OP(=O)(O)O; conditions: co-substrate oxaloacetate, 100 mM Tris-HCl pH 7.8, 55°C
[2] = tested on: CC(=O)SCCNC(=O)CCNC(=O)[C@H](O)C(C)(C)COP(=O)(O)OP(=O)(O)OC[C@H]1O[C@@H](n2cnc3c(N)ncnc32)[C@H](O)[C@@H]1OP(=O)(O)O; conditions: co-substrate oxaloacetate, 100 mM Tris-HCl pH 7.8, 55°C
[3] = tested on: CC(C)(COP(=O)(O)OP(=O)(O)OC[C@H]1O[C@@H](n2cnc3c(N)ncnc32)[C@H](O)[C@@H]1OP(=O)(O)O)[C@@H](O)C(=O)NCCC(=O)NCCS; conditions: citrate cleavage direction, 55°C

Si-citrate/2-methylcitrate synthase (AHF97591) (Desulfurella acetivorans A63)
Km (O=C(O)CC(=O)C(=O)O): 30 ± 4.4 µM | Vmax (O=C(O)CC(=O)C(=O)O): 21 µmol/min/mg | kcat/Km (O=C(O)CC(=O)C(=O)O): 600 M⁻¹ s⁻¹ | Km [1]: 22 ± 3.5 µM | Vmax [1]: 7.4 µmol/min/mg | kcat/Km [1]: 300 M⁻¹ s⁻¹ | Km [2]: 14 ± 1.8 µM | Vmax [2]: 26 µmol/min/mg | kcat/Km [2]: 1500 M⁻¹ s⁻¹ | Km [3]: 41 ± 11 µM | Vmax [3]: 0.1 µmol/min/mg | kcat/Km [3]: 2000 M⁻¹ s⁻¹
